# Assay results taken from publication doi:10.1101/2020.01.08.898304 (bioRxiv, 2020).
# T1: MBP-Jacob-45-228-180A (UniProt Q9EPI6 45-228, S180A)
# T1 sequence (looked up): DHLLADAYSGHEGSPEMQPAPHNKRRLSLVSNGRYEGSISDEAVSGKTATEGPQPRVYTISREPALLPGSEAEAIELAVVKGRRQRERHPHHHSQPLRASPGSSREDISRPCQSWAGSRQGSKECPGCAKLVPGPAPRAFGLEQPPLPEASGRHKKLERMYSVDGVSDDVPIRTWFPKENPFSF
# T2: MBP-Jacob-45-228 (UniProt Q9EPI6 45-228)
# T2 sequence (looked up): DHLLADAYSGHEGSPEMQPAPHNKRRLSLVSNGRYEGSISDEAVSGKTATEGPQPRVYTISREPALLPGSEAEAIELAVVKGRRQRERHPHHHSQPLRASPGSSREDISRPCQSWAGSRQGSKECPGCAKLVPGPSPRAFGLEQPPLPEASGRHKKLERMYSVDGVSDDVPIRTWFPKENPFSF
# T3: Jacob (recombinant protein used for ITC) (UniProt Q9EPI6 1-532)
# T3 sequence (looked up): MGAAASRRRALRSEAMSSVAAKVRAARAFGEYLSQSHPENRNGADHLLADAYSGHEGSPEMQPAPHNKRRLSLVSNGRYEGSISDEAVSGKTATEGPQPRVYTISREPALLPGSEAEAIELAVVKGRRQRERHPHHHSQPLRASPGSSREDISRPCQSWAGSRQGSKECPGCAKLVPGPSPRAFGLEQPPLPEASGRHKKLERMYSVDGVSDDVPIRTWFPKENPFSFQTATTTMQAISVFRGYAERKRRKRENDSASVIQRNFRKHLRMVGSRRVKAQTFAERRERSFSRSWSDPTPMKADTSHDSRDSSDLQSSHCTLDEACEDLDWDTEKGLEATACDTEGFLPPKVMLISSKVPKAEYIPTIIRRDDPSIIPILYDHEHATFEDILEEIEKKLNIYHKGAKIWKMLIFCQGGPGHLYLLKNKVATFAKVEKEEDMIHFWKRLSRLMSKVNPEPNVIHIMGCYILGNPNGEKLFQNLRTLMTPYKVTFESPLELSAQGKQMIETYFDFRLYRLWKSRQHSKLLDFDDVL
# How the values were obtained:
# MBP-Jacob-45-228-180A = molecular target: T1, MBP-Jacob-45-228-180A; experiment: pull-down
# MBP-Jacob-45-228 = molecular target: T2, MBP-Jacob-45-228; experiment: pull-down
# [1] = molecular target: T3, Jacob (recombinant protein used for ITC); experiment: ITC
binder,measurement,setting,value
"GST-LMO4 (natural protein, UniProt P61968 1-165, looked up) MVNPGSSSQPPPVTAGSLSWKRCAGCGGKIADRFLLYAMDSYWHSRCLKCSCCQAQLGDIGTSCYTKSGMILCRNDYIRLFGNSGACSACGQSIPASELVMRAQGNVYHLKCFTCSTCRNRLVPGDRFHYINGSLFCEHDRPTALINGHLNSLQSNPLLPDQKVC",binding result,MBP-Jacob-45-228-180A,binds
same,binding result,MBP-Jacob-45-228,binds
same,Kd,[1],370 nM
